This is an account of results in patent publication US20160272690A1.

Broadly, the IC50 is the concentration that gives 50% inhibition. Read a low IC50 as greater potency.

Bridges are numbered along the chain shown (N, C = ends). Where no end group is shown, it is not given here. [ ]: non-standard residue; d: D form. hCys = N[C@@H](CCS)C(=O)O; Orn = NCCC[C@H](N)C(=O)O; Dab = NCC[C@H](N)C(=O)O

The assay deals with TEAD. The experiment in a line: IC50 for TEAD binding (TR-FRET test).
TEAD, sequence (P28347 209-426): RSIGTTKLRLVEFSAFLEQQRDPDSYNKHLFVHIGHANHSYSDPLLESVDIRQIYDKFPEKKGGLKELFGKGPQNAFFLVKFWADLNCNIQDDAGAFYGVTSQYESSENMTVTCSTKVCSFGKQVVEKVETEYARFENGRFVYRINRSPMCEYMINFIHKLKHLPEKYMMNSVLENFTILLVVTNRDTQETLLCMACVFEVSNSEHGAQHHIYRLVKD

Consider VPF[hCys]LR[Orn]LPDSFCKPPE (disulfide 4-13) [polypeptide represented by SEQ ID NO.: 5], for which the IC50 came to 43 nM. The figure for VPF[hCys]LR[Dab]LPDSFCKPPE (disulfide 4-13) [polypeptide represented by SEQ ID NO.: 6] is 28 nM.
